Molecular target: APOBEC3G (human), Q9HC16
Assay: SEC
Conditions: remark: other sources report otherwise

stoichiometry N: 2
B1: APOBEC3G, Q9HC16 1-384 (enzyme)
chain: MKPHFRNTVERMYRDTFSYNFYNRPILSRRNTVWLCYEVKTKGPSRPPLDAKIFRGQVYSELKYHPEMRFFHWFSKWRKLHRDQEYEVTWYISWSPCTKCTRDMATFLAEDPKVTLTIFVARLYYFWDPDYQEALRSLCQKRDGPRATMKIMNYDEFQHCWSKFVYSQRELFEPWNNLPKYYILLHIMLGEILRHSMDPPTFTFNFNNEPWVRGRHETYLCYEVERMHNDTWVLLNQRRGFLCNQAPHKHGFLEGRHAELCFLDVIPFWKLDLDQDYRVTCFTSWSPCFSCAQEMAKFISKNKHVSLCIFTARIYDDQGRCQEGLRTLAEAGAKISIMTYSEFKHCWDTFVDHQGCPFQPWDGLDEHSQDLSGRLRAILQNQEN

Reference: PMC5714209
